Experimental data as given in paper PMC3695229.

Biological target: human TGF-β2 (human)
Assay: SPR; Biacore 2000; biotinylated ligands immobilised on streptavidin-coated CM5 chip, TGFR-3-ZP variants as analytes; 25°C, HBS500 (10 mM HEPES pH 7.4, 500 mM NaCl, 3.4 mM EDTA, 0.005% P20); apparent affinities from equilibrium binding

Kd [µM]	Binder
2.7	TGFR-3-ZP(234) (domain or fragment, one remaining potential N-glycosylation site (N491)) REPEEVQGGVNIALSVKCDNEKMVVAVDKDSFQTNGYSGMELTLLDPSCKAKMNGTHFVLESPLNGCGTRHRRSAPDGVVYYNSIVVQAPSPGDSSGWPDGYEDLESGDNGFPGDTDEGETAPLSRAGVVVFQCSLRQLRSPSGFQDQLDGQATFNMELYNTDLFLVPSPGVFSVAENEHVYVEVSVTKADQDLGFAIQTCFISPYSNPDRMSDYTIIENICPKDDSVKFYSSKRVHFPIPHAEVDKKRFSFVFKSVFQTSLLFLHCELTLCSRNKGSQKLPKCVTPDDACTSLDATMIWTMMQNKKTFTKPLAVVLQVDYKENVPNMKESSPVPPPPQIFHGLD
2.4	murine TGFR-3-ZP (recombinant ZP domain of TGF-β receptor type 3, residues 438-782, including the EHP) (domain or fragment, secretory glycoprotein; four potential N-glycosylation sites (positions 491, 570, 589 and 696)) REPEEVQGGVNIALSVKCDNEKMVVAVDKDSFQTNGYSGMELTLLDPSCKAKMNGTHFVLESPLNGCGTRHRRSAPDGVVYYNSIVVQAPSPGDSSGWPDGYEDLESGDNGFPGDTDEGETAPLSRAGVVVFNCSLRQLRSPSGFQDQLDGNATFNMELYNTDLFLVPSPGVFSVAENEHVYVEVSVTKADQDLGFAIQTCFISPYSNPDRMSDYTIIENICPKDDSVKFYSSKRVHFPIPHAEVDKKRFSFVFKSVFNTSLLFLHCELTLCSRNKGSQKLPKCVTPDDACTSLDATMIWTMMQNKKTFTKPLAVVLQVDYKENVPNMKESSPVPPPPQIFHGLD
